Numbered stars: 1 amine (or outer) side, 2 acyl side, 3 side chain; on linkers, the order of the positions; unused ones are H or OH. Square brackets hold non-standard residues; d marks the D form. Side chains are listed from the residue outwards. Ends that are not written are not given here. * marks the point of attachment. OC17H32COOH = fatty diacid acyl group -OC17H32COOH on the linker; C20 diacid = O=C(O)CCCCCCCCCCCCCCCCCCC(=O)*; C18 diacid = O=C(O)CCCCCCCCCCCCCCCCC(=O)*; γGlu = O=C(O)[C@H](CCC(=O)[*:2])N[*:1]; Palmitoyl = CCCCCCCCCCCCCCCC(=O)*; AEEA = NCCOCCOCC(=O)O; Aib = CC(C)(N)C(=O)O
B1: Compound 26 (peptide)
peptide: HXQGTFTSDYSKYLEEKRAKEFVEWLLEAGGPSSG
HELM: PEPTIDE1{H.[Aib].Q.G.T.F.T.S.D.Y.S.K.Y.L.E.E.K.R.A.K.E.F.V.E.W.L.L.E.A.G.G.P.S.S.G.[am]}|PEPTIDE2{[CCCCCCCCCCCCCCCC(=O)[*:2]].[gGlu].[gGlu]}$PEPTIDE1,PEPTIDE2,20:R3-3:R2$$$V2.0; N-terminus assumed
SMILES: CCCCCCCCCCCCCCCC(=O)N[C@@H](CCC(=O)N[C@@H](CCC(=O)NCCCC[C@H](NC(=O)[C@H](C)NC(=O)[C@H](CCCNC(=N)N)NC(=O)[C@H](CCCCN)NC(=O)[C@H](CCC(=O)O)NC(=O)[C@H](CCC(=O)O)NC(=O)[C@H](CC(C)C)NC(=O)[C@H](Cc1ccc(O)cc1)NC(=O)[C@H](CCCCN)NC(=O)[C@H](CO)NC(=O)[C@H](Cc1ccc(O)cc1)NC(=O)[C@H](CC(=O)O)NC(=O)[C@H](CO)NC(=O)[C@@H](NC(=O)[C@H](Cc1ccccc1)NC(=O)[C@@H](NC(=O)CNC(=O)[C@H](CCC(N)=O)NC(=O)C(C)(C)NC(=O)[C@@H](N)Cc1c[nH]cn1)[C@@H](C)O)[C@@H](C)O)C(=O)N[C@@H](CCC(=O)O)C(=O)N[C@@H](Cc1ccccc1)C(=O)N[C@H](C(=O)N[C@@H](CCC(=O)O)C(=O)N[C@@H](Cc1c[nH]c2ccccc12)C(=O)N[C@@H](CC(C)C)C(=O)N[C@@H](CC(C)C)C(=O)N[C@@H](CCC(=O)O)C(=O)N[C@@H](C)C(=O)NCC(=O)NCC(=O)N1CCC[C@H]1C(=O)N[C@@H](CO)C(=O)N[C@@H](CO)C(=O)NCC(N)=O)C(C)C)C(=O)O)C(=O)O
B2: Compound 36 (peptide)
peptide: HXQGTFTSDKSKYLXERAAKEFIXWLEAGGPSSG
modifications: not fully specified; Lys 10 side chain -Ado-Ado-γE-OC17H32COOH; C-terminal amide
B3: Compound 79 (peptide)
peptide: B2 peptide
modifications: not fully specified; Lys 10 side chain -Ado-Ado-γE-OC17H32COOH; C-terminal amide
B4: Compound 1 (peptide)
peptide: B2 peptide
HELM: PEPTIDE1{H.[Aib].Q.G.T.F.T.S.D.K.S.K.Y.L.E.E.R.A.A.K.E.F.I.A.W.L.E.A.G.G.P.S.S.G.[am]}|PEPTIDE2{[CCCCCCCCCCCCCCCC(=O)[*:2]].[gGlu].[gGlu]}$PEPTIDE1,PEPTIDE2,10:R3-3:R2$$$V2.0; N-terminus assumed
SMILES: CCCCCCCCCCCCCCCC(=O)N[C@@H](CCC(=O)N[C@@H](CCC(=O)NCCCC[C@H](NC(=O)[C@H](CC(=O)O)NC(=O)[C@H](CO)NC(=O)[C@@H](NC(=O)[C@H](Cc1ccccc1)NC(=O)[C@@H](NC(=O)CNC(=O)[C@H](CCC(N)=O)NC(=O)C(C)(C)NC(=O)[C@@H](N)Cc1c[nH]cn1)[C@@H](C)O)[C@@H](C)O)C(=O)N[C@@H](CO)C(=O)N[C@@H](CCCCN)C(=O)N[C@@H](Cc1ccc(O)cc1)C(=O)N[C@@H](CC(C)C)C(=O)N[C@@H](CCC(=O)O)C(=O)N[C@@H](CCC(=O)O)C(=O)N[C@@H](CCCNC(=N)N)C(=O)N[C@@H](C)C(=O)N[C@@H](C)C(=O)N[C@@H](CCCCN)C(=O)N[C@@H](CCC(=O)O)C(=O)N[C@@H](Cc1ccccc1)C(=O)N[C@H](C(=O)N[C@@H](C)C(=O)N[C@@H](Cc1c[nH]c2ccccc12)C(=O)N[C@@H](CC(C)C)C(=O)N[C@@H](CCC(=O)O)C(=O)N[C@@H](C)C(=O)NCC(=O)NCC(=O)N1CCC[C@H]1C(=O)N[C@@H](CO)C(=O)N[C@@H](CO)C(=O)NCC(N)=O)[C@@H](C)CC)C(=O)O)C(=O)O

biological target: human GLP-1 receptor (human, UniProt P43220 24-463); assay: cell-based or functional assay

Row | Binder | EC50 of GLP-1 receptor mediated cAMP production [nM]
1 | H[Aib]QGTFTSDYSKYLDERKAK([γGlu-γGlu-Palmitoyl])EFVEWLEGGPSSG-NH2 (not fully specified; printed as HAibQGTFTSDYSKYLDERKAK*EFVEWLEGGPSSG-Amid) [Compound 69] | 0.778
2 | HSQGTFTSDYSKYLDERAAK([AEEA-AEEA-γGlu-C18 diacid])EFIAWLEGGPSSG-NH2 (not fully specified; printed as HSQGTFTSDYSKYLDERAAK**EFIAWLEGGPSSG-Amid) [Compound 38] | 0.716
3 | H[Aib]QGTFTSDYSKYLEEKRAK([AEEA-AEEA-γGlu-C18 diacid])EFVAWLEAGGPSSG-NH2 (not fully specified; printed as HAibQGTFTSDYSKYLEEKRAK**EFVAWLEAGGPSSG-Amid) [Compound 53] | 0.532
4 | H[Aib]QGTFTSDYSKYLEERAAK([AEEA-AEEA-γGlu-C18 diacid])EFVEWLEGGPSSG-NH2 (not fully specified; printed as HAibQGTFTSDYSKYLEERAAK**EFVEWLEGGPSSG-Amid) [Compound 32] | 1.01
5 | H[Aib]QGTFTSDYSKYLEERKAK([γGlu-γGlu-Palmitoyl])EFVEWLEGGPSSG-NH2 (not fully specified; printed as HAibQGTFTSDYSKYLEERKAK*EFVEWLEGGPSSG-Amid) [Compound 62] | 0.313
6 | H[Aib]QGTFTSDYSKYLDERKAK([AEEA-AEEA-γGlu-C18 diacid])EFVEWLEAGGPSSG-NH2 (not fully specified; printed as HAibQGTFTSDYSKYLDERKAK**EFVEWLEAGGPSSG-Amid) [Compound 42] | 0.52
7 | H[Aib]QGTFTSDYSKYLEERKAK([AEEA-AEEA-γGlu-C20 diacid])EFIAWLEGGPSSG-NH2 (not fully specified; printed as HAibQGTFTSDYSKYLEERKAK***EFIAWLEGGPSSG-Amid) [Compound 68] | 0.13
8 | H[Aib]QGTFTSDYSKYLEERKAK([AEEA-AEEA-γGlu-C18 diacid])EFIAWLEAGGPSSG-NH2 (not fully specified; printed as HAibQGTFTSDYSKYLEERKAK**EFIAWLEAGGPSSG-Amid) [Compound 44] | 0.371
9 | H[Aib]QGTFTSDYSKYLEEKRAK([AEEA-AEEA-γGlu-C18 diacid])EFVEWLEAGGPSSG-NH2 (not fully specified; printed as HAibQGTFTSDYSKYLEEKRAK**EFVEWLEAGGPSSG-Amid) [Compound 54] | 0.219
10 | B1 | 0.193
11 | H[Aib]QGTFTSDYSKYLDEKRAK([γGlu-γGlu-Palmitoyl])EFIAWLEAGGPSSG-NH2 (not fully specified; printed as HAibQGTFTSDYSKYLDEKRAK*EFIAWLEAGGPSSG-Amid) [Compound 57] | 0.094
12 | H[Aib]QGTFTSDYSKYLEEKRAK([γGlu-γGlu-Palmitoyl])EFVEWLEGGPSSG-NH2 (not fully specified; printed as HAibQGTFTSDYSKYLEEKRAK*EFVEWLEGGPSSG-Amid) [Compound 76] | 0.22
13 | H[Aib]QGTFTSDYSKYLDERKAK([AEEA-AEEA-γGlu-OC17H32COOH])EFIEWLEGGPSSG-NH2 (not fully specified; printed as HAibQGTFTSDYSKYLDERKAK**EFIEWLEGGPSSG-Amid) [Compound 66] | 0.051
14 | H[Aib]QGTFTSDYSKYLDEKRAK([AEEA-AEEA-γGlu-C18 diacid])EFIAWLEAGGPSSG-NH2 (not fully specified; printed as HAibQGTFTSDYSKYLDEKRAK**EFIAWLEAGGPSSG-Amid) [Compound 50] | 0.119
15 | H[Aib]QGTFTSDK([AEEA-AEEA-γGlu-C18 diacid])SKYLEERAAKEFIAWLEAGGPSSG-NH2 (not fully specified; printed as HAibQGTFTSDK**SKYLEERAAKEFIAWLEAGGPSSG-Amid) [Compound 27] | 0.011
16 | H[Aib]QGTFTSDYSKYLEEKRAK([AEEA-AEEA-γGlu-C18 diacid])EFVAWLEGGPSSG-NH2 (not fully specified; printed as HAibQGTFTSDYSKYLEEKRAK**EFVAWLEGGPSSG-Amid) [Compound 74] | 0.842
17 | B2 | 0.072
18 | B3 | 0.033
19 | B4 | 0.0654

biological target: GC receptor; assay: cell-based or functional assay

Row | Binder | EC50 of GC receptor mediated cAMP production [nM]
20 | H[Aib]QGTFTSDYSKYLDERKAK([γGlu-γGlu-Palmitoyl])EFVEWLEGGPSSG-NH2 (not fully specified; printed as HAibQGTFTSDYSKYLDERKAK*EFVEWLEGGPSSG-Amid) [Compound 69] | 0.261
21 | HSQGTFTSDYSKYLDERAAK([AEEA-AEEA-γGlu-C18 diacid])EFIAWLEGGPSSG-NH2 (not fully specified; printed as HSQGTFTSDYSKYLDERAAK**EFIAWLEGGPSSG-Amid) [Compound 38] | 0.102
22 | H[Aib]QGTFTSDYSKYLEEKRAK([AEEA-AEEA-γGlu-C18 diacid])EFVAWLEAGGPSSG-NH2 (not fully specified; printed as HAibQGTFTSDYSKYLEEKRAK**EFVAWLEAGGPSSG-Amid) [Compound 53] | 0.316
23 | H[Aib]QGTFTSDYSKYLEERAAK([AEEA-AEEA-γGlu-C18 diacid])EFVEWLEGGPSSG-NH2 (not fully specified; printed as HAibQGTFTSDYSKYLEERAAK**EFVEWLEGGPSSG-Amid) [Compound 32] | 0.077
24 | H[Aib]QGTFTSDYSKYLEERKAK([γGlu-γGlu-Palmitoyl])EFVEWLEGGPSSG-NH2 (not fully specified; printed as HAibQGTFTSDYSKYLEERKAK*EFVEWLEGGPSSG-Amid) [Compound 62] | 0.156
25 | H[Aib]QGTFTSDYSKYLDERKAK([AEEA-AEEA-γGlu-C18 diacid])EFVEWLEAGGPSSG-NH2 (not fully specified; printed as HAibQGTFTSDYSKYLDERKAK**EFVEWLEAGGPSSG-Amid) [Compound 42] | 0.024
26 | H[Aib]QGTFTSDYSKYLEERKAK([AEEA-AEEA-γGlu-C20 diacid])EFIAWLEGGPSSG-NH2 (not fully specified; printed as HAibQGTFTSDYSKYLEERKAK***EFIAWLEGGPSSG-Amid) [Compound 68] | 0.314
27 | H[Aib]QGTFTSDYSKYLEERKAK([AEEA-AEEA-γGlu-C18 diacid])EFIAWLEAGGPSSG-NH2 (not fully specified; printed as HAibQGTFTSDYSKYLEERKAK**EFIAWLEAGGPSSG-Amid) [Compound 44] | 0.219
28 | H[Aib]QGTFTSDYSKYLEEKRAK([AEEA-AEEA-γGlu-C18 diacid])EFVEWLEAGGPSSG-NH2 (not fully specified; printed as HAibQGTFTSDYSKYLEEKRAK**EFVEWLEAGGPSSG-Amid) [Compound 54] | 0.274
29 | B1 | 0.197
30 | H[Aib]QGTFTSDYSKYLDEKRAK([γGlu-γGlu-Palmitoyl])EFIAWLEAGGPSSG-NH2 (not fully specified; printed as HAibQGTFTSDYSKYLDEKRAK*EFIAWLEAGGPSSG-Amid) [Compound 57] | 0.081
31 | H[Aib]QGTFTSDYSKYLEEKRAK([γGlu-γGlu-Palmitoyl])EFVEWLEGGPSSG-NH2 (not fully specified; printed as HAibQGTFTSDYSKYLEEKRAK*EFVEWLEGGPSSG-Amid) [Compound 76] | 0.191
32 | H[Aib]QGTFTSDYSKYLDERKAK([AEEA-AEEA-γGlu-OC17H32COOH])EFIEWLEGGPSSG-NH2 (not fully specified; printed as HAibQGTFTSDYSKYLDERKAK**EFIEWLEGGPSSG-Amid) [Compound 66] | 0.058
33 | H[Aib]QGTFTSDYSKYLDEKRAK([AEEA-AEEA-γGlu-C18 diacid])EFIAWLEAGGPSSG-NH2 (not fully specified; printed as HAibQGTFTSDYSKYLDEKRAK**EFIAWLEAGGPSSG-Amid) [Compound 50] | 0.048
34 | H[Aib]QGTFTSDK([AEEA-AEEA-γGlu-C18 diacid])SKYLEERAAKEFIAWLEAGGPSSG-NH2 (not fully specified; printed as HAibQGTFTSDK**SKYLEERAAKEFIAWLEAGGPSSG-Amid) [Compound 27] | 0.014
35 | H[Aib]QGTFTSDYSKYLEEKRAK([AEEA-AEEA-γGlu-C18 diacid])EFVAWLEGGPSSG-NH2 (not fully specified; printed as HAibQGTFTSDYSKYLEEKRAK**EFVAWLEGGPSSG-Amid) [Compound 74] | 0.725
36 | B2 | 0.069
37 | B3 | 0.025
38 | B4 | 0.0574

Reference: patent publication US20240252592A1 (TIANJIN INSTITUTE OF PHARMACEUTICAL RESEARCH, published 2024)
